Eleven molecules from publication PMC2702275, “TIPT2 and geminin interact with basal transcription factors to synergize in transcriptional regulation” can be followed below.

Read-outs that look alike come from different tables or passages of the source.

Data set [1] deals with GST-TIPT2 (TATA-binding protein-like factor-interacting protein, isoform 2) (mouse) (UniProt Q6P926).
In data set [2] the target is T1, GST-TIPT2 (TIPT isoform 2) (mouse, UniProt Q6P926 1-205).
T1 sequence: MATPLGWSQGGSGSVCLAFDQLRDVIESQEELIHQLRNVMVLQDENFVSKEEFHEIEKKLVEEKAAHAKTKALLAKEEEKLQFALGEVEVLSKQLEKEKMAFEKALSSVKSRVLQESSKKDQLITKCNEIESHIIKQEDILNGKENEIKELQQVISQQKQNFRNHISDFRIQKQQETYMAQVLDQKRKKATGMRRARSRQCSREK
To be noted: protein: recombinant, tags: N-terminal GST.

Data set [3] deals with T1, GST-TIPT2 (TIPT isoform 2). To be noted: protein: recombinant; tags: N-terminal GST.
The target in data set [4] is T2, TBP (human, UniProt P20226 1-339). The settings on record: protein: recombinant; label: radiolabel.
For data set [5], the target named is T2, TBP. To be noted: protein: recombinant.
The target of data set [6] is T1, GST-TIPT2 (TIPT isoform 2). To be noted: protein: recombinant; tags: N-terminal GST; label: radiolabel.

T2 sequence (P20226 whole entry): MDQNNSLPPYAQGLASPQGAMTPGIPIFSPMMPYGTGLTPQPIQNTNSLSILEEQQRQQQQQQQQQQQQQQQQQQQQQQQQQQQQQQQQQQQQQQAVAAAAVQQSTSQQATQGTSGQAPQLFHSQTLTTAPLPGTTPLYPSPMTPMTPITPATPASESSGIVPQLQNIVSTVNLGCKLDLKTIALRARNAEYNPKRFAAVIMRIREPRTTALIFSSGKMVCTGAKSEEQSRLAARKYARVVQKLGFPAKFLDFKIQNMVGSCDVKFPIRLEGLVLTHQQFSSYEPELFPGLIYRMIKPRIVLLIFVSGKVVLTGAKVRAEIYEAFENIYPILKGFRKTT

In data set [1], “in vitro translated geminin (from UniProt O88513 1-206) (natural protein)” gave a luciferase reporter in U2OS cells: activation of the AdMLP, co-transfection of geminin with TIPT2 of 11 fold; a luciferase reporter in U2OS cells: activation of the AdMLP, triple transfection of TBP, TIPT2 and geminin of 16 fold.

B1: AdMLPm7 (dsDNA)
DNA 1: AAGGGGGGCTATAAAAGGTTGTGGG
DNA 2: CCCACAACCTTTTATAGCCCCCCTT
Regarding B1, the binding result in data set [2] was “binds”.

B2: AdMLPm5 (dsDNA)
DNA 1: AAGGGGGGTGATAAAAGGGGGTGGG
DNA 2: CCCACCCCCTTTTATCACCCCCCTT
On to B2, for which the binding result in data set [3] is recorded as “binds”.

B3: AdMLPm8 (dsDNA)
DNA 1: AAGGGGGGCTATAAAAGGGGTGGGG
DNA 2: CCCCACCCCTTTTATAGCCCCCCTT
Consider B3, for which the binding result in data set [2] is on record as “binds”.

B4: AdMLPm1 (dsDNA)
DNA 1: AAGGGGGGCTGTAAAAGGGGGTGGG
DNA 2: CCCACCCCCTTTTACAGCCCCCCTT
In the case of B4, the binding result with TBP [4] is reported as “no binding”; in data set [2] (label: radiolabel), “binds”.

B5: AdMLPm4 (dsDNA)
DNA 1: AAGGGGTTCTATAAAAGGGGGTGGG
DNA 2: CCCACCCCCTTTTATAGAACCCCTT
For B5, the binding result in data set [2] is on record as “binds”.

B6: AdMLPm9 (dsDNA)
DNA 1: AAGGGGGGCTATAAAAGGGGGTTTT
DNA 2: AAAACCCCCTTTTATAGCCCCCCTT
As to B6, the binding result in data set [2] is “binds”.

B7: AdMLPm2 (dsDNA)
DNA 1: AATTGGGGCTATAAAAGGGGGTGGG
DNA 2: CCCACCCCCTTTTATAGCCCCAATT
In the case of B7, the binding result in data set [2] was “binds”.

B8: AdMLPm6 (dsDNA)
DNA 1: AAGGGGGGCTATAAAATTGGGTGGG
DNA 2: CCCACCCAATTTTATAGCCCCCCTT
On to B8, for which, in data set [2], the binding result was “binds”.

B9: AdMLP (-40 to -16) (dsDNA)
DNA 1: AAGGGGGGCTATAAAAGGGGGTGGG
DNA 2: CCCACCCCCTTTTATAGCCCCCCTT
Turning to B9, the binding result (in data set [2]; with TBP [5]) was “binds” each time.

B10: AdE4 (dsDNA)
DNA 1: GATCCGGAGTATATATAGGACCTTG
DNA 2: CAAGGTCCTATATATACTCCGGATC
For B10, the binding result is given as “binds” with TBP [5] (label: radiolabel) and “no binding” in data set [6].
